{
  "source": "patent US20090029376",
  "experiment_in_all_cases": "cleavage_in_vitro",
  "key": {"[1]": {"target": "T1, HpaI (Haemophilus parainfluenzae) (UniProt P29537)", "T1 sequence": "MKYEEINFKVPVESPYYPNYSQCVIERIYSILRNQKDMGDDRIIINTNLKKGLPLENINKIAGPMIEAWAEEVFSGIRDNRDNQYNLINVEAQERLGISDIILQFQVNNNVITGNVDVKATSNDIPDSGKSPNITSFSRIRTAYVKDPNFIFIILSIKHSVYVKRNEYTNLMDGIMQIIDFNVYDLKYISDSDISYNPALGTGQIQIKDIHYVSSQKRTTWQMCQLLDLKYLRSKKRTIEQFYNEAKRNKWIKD", "details": "NEB4, 37 C"}, "[2]": {"target": "T2, ScaI-HF H193A/S201F (Streptomyces caespitosus) (UniProt O52691)", "T2 sequence": "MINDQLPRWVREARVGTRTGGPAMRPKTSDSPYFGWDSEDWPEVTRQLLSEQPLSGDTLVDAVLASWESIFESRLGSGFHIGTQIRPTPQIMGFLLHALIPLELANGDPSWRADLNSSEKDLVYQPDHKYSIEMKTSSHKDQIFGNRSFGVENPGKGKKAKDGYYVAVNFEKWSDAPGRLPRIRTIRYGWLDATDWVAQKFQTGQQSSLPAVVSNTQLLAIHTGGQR", "details": "NEB2, 37 C"}, "[3]": {"system": "T3, SbfI (Streptomyces species Bf-6)", "T3 sequence": "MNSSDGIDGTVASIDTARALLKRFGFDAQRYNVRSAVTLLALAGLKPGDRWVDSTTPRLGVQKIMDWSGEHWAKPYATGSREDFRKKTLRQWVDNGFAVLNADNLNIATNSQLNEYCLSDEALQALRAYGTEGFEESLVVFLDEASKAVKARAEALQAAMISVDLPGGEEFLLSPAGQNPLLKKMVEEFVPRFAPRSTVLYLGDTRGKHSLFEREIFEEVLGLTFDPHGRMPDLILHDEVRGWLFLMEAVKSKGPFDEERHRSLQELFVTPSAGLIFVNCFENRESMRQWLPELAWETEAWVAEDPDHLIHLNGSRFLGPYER", "details": "NEB4, 37 C"}, "[4]": {"system": "T4, BspQI (Bacillus sphaericus)", "T4 sequence": "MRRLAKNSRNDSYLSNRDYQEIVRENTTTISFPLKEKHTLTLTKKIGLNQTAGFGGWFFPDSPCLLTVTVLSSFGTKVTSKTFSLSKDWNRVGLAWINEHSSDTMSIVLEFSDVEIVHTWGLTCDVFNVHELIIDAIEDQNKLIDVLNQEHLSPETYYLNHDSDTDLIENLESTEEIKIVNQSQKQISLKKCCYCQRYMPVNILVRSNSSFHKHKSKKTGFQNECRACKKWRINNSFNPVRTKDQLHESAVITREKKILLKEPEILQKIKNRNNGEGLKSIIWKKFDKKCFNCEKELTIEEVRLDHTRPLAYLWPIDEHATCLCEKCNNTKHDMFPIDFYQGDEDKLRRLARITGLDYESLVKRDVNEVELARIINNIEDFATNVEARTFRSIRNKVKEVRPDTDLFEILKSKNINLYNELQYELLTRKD", "details": "NEB4, 50 C"}, "[5]": {"system": "T5, BsmBI-HF N185Y/R232A (Bacillus stearothermophilus)", "T5 sequence": "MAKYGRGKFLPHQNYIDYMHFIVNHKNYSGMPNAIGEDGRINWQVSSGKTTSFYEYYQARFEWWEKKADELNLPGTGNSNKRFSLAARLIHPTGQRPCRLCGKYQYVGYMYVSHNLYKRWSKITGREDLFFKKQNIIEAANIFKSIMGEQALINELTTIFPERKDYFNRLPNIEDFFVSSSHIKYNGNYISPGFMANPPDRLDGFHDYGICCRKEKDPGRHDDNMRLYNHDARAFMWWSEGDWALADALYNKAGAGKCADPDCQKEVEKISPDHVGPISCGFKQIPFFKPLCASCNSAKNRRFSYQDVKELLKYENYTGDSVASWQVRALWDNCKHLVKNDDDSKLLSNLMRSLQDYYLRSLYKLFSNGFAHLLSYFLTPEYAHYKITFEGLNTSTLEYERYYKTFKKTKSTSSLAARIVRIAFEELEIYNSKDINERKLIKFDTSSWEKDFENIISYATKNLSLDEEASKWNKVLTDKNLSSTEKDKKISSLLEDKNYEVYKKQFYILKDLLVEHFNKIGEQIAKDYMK", "details": "NEB4, 55 C"}, "[6]": {"system": "T6, NcoI-HF A2T/R31A (Nocardia corallina)", "T6 sequence": "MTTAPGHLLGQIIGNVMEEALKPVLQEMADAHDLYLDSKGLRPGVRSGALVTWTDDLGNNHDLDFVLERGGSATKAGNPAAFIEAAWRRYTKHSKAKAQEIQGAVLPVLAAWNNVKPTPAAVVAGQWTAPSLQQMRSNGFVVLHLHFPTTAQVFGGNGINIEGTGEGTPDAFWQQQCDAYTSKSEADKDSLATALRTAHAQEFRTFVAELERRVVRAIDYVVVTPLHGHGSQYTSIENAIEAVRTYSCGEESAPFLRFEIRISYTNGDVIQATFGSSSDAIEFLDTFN", "details": "NEB4, 37 C"}},
  "data": [
    {"substance": "lambda phage DNA", "values": [
      {"measurement": "activity (fidelity index)", "setting": "[1]", "value": 16},
      {"measurement": "activity (fidelity index)", "setting": "[2]", "value": 120},
      {"measurement": "activity (fidelity index)", "setting": "[3]", "value": 8},
      {"measurement": "activity (fidelity index)", "setting": "[4]", "value": 4},
      {"measurement": "activity (fidelity index)", "setting": "[5]", "value": "> 500"},
      {"measurement": "activity (fidelity index)", "setting": "[6]", "value": "> 16000"}
    ]}
  ]
}
